{"source": "patent US20110105394A1", "about": "(Novo Nordisk, published 2011)", "binders": {"B1": {"name": "N-alpha-[(S)-4-Carboxy-4-(17-carboxyheptadecanoylamino)butyryl]-His-[His1,His17]-pramlintide (peptide)", "peptide": "X1-HHCNTATCATQRLANFLHHSSNNFGPILPPTNVGSNTY-NH2", "modifications": "disulfide 3-8", "SMILES": "CC[C@H](C)[C@H](NC(=O)[C@@H]1CCCN1C(=O)CNC(=O)[C@H](Cc1ccccc1)NC(=O)[C@H](CC(N)=O)NC(=O)[C@H](CC(N)=O)NC(=O)[C@H](CO)NC(=O)[C@H](CO)NC(=O)[C@H](Cc1c[nH]cn1)NC(=O)[C@H](Cc1c[nH]cn1)NC(=O)[C@H](CC(C)C)NC(=O)[C@H](Cc1ccccc1)NC(=O)[C@H](CC(N)=O)NC(=O)[C@H](C)NC(=O)[C@H](CC(C)C)NC(=O)[C@H](CCCNC(=N)N)NC(=O)[C@H](CCC(N)=O)NC(=O)[C@@H](NC(=O)[C@H](C)NC(=O)[C@@H]1CSSC[C@H](NC(=O)[C@H](Cc2c[nH]cn2)NC(=O)[C@H](Cc2c[nH]cn2)NC(=O)CC[C@H](NC(=O)CCCCCCCCCCCCCCCCC(=O)O)C(=O)O)C(=O)N[C@@H](CC(N)=O)C(=O)N[C@@H]([C@@H](C)O)C(=O)N[C@@H](C)C(=O)N[C@@H]([C@@H](C)O)C(=O)N1)[C@@H](C)O)C(=O)N[C@@H](CC(C)C)C(=O)N1CCC[C@H]1C(=O)N1CCC[C@H]1C(=O)N[C@H](C(=O)N[C@@H](CC(N)=O)C(=O)N[C@H](C(=O)NCC(=O)N[C@@H](CO)C(=O)N[C@@H](CC(N)=O)C(=O)N[C@H](C(=O)N[C@@H](Cc1ccc(O)cc1)C(N)=O)[C@@H](C)O)C(C)C)[C@@H](C)O"}, "B2": {"name": "N-alpha-[2-(2-{2-[4-(S)-Carboxy-4-(19-carboxynonadecanoylamino)butyrylamino]ethoxy}ethoxy)acetyl]-Arg-[Ala17]-pramlintide (peptide)", "peptide": "{C20 diacid-γGlu-AEEA}-RKCNTATCATQRLANFLAHSSNNFGPILPPTNVGSNTY-NH2", "modifications": "disulfide 3-8", "SMILES": "CC[C@H](C)[C@H](NC(=O)[C@@H]1CCCN1C(=O)CNC(=O)[C@H](Cc1ccccc1)NC(=O)[C@H](CC(N)=O)NC(=O)[C@H](CC(N)=O)NC(=O)[C@H](CO)NC(=O)[C@H](CO)NC(=O)[C@H](Cc1c[nH]cn1)NC(=O)[C@H](C)NC(=O)[C@H](CC(C)C)NC(=O)[C@H](Cc1ccccc1)NC(=O)[C@H](CC(N)=O)NC(=O)[C@H](C)NC(=O)[C@H](CC(C)C)NC(=O)[C@H](CCCNC(=N)N)NC(=O)[C@H](CCC(N)=O)NC(=O)[C@@H](NC(=O)[C@H](C)NC(=O)[C@@H]1CSSC[C@H](NC(=O)[C@H](CCCCN)NC(=O)[C@H](CCCNC(=N)N)NC(=O)COCCOCCNC(=O)CC[C@H](NC(=O)CCCCCCCCCCCCCCCCCCC(=O)O)C(=O)O)C(=O)N[C@@H](CC(N)=O)C(=O)N[C@@H]([C@@H](C)O)C(=O)N[C@@H](C)C(=O)N[C@@H]([C@@H](C)O)C(=O)N1)[C@@H](C)O)C(=O)N[C@@H](CC(C)C)C(=O)N1CCC[C@H]1C(=O)N1CCC[C@H]1C(=O)N[C@H](C(=O)N[C@@H](CC(N)=O)C(=O)N[C@H](C(=O)NCC(=O)N[C@@H](CO)C(=O)N[C@@H](CC(N)=O)C(=O)N[C@H](C(=O)N[C@@H](Cc1ccc(O)cc1)C(N)=O)[C@@H](C)O)C(C)C)[C@@H](C)O"}, "B3": {"name": "N-alpha-[(S)-4-Carboxy-4-(17-carboxyheptadecanoylamino)butyryl]-Arg-[Arg17]-pramlintide (peptide)", "peptide": "X1-RKCNTATCATQRLANFLRHSSNNFGPILPPTNVGSNTY-NH2", "modifications": "disulfide 3-8", "SMILES": "CC[C@H](C)[C@H](NC(=O)[C@@H]1CCCN1C(=O)CNC(=O)[C@H](Cc1ccccc1)NC(=O)[C@H](CC(N)=O)NC(=O)[C@H](CC(N)=O)NC(=O)[C@H](CO)NC(=O)[C@H](CO)NC(=O)[C@H](Cc1c[nH]cn1)NC(=O)[C@H](CCCNC(=N)N)NC(=O)[C@H](CC(C)C)NC(=O)[C@H](Cc1ccccc1)NC(=O)[C@H](CC(N)=O)NC(=O)[C@H](C)NC(=O)[C@H](CC(C)C)NC(=O)[C@H](CCCNC(=N)N)NC(=O)[C@H](CCC(N)=O)NC(=O)[C@@H](NC(=O)[C@H](C)NC(=O)[C@@H]1CSSC[C@H](NC(=O)[C@H](CCCCN)NC(=O)[C@H](CCCNC(=N)N)NC(=O)CC[C@H](NC(=O)CCCCCCCCCCCCCCCCC(=O)O)C(=O)O)C(=O)N[C@@H](CC(N)=O)C(=O)N[C@@H]([C@@H](C)O)C(=O)N[C@@H](C)C(=O)N[C@@H]([C@@H](C)O)C(=O)N1)[C@@H](C)O)C(=O)N[C@@H](CC(C)C)C(=O)N1CCC[C@H]1C(=O)N1CCC[C@H]1C(=O)N[C@H](C(=O)N[C@@H](CC(N)=O)C(=O)N[C@H](C(=O)NCC(=O)N[C@@H](CO)C(=O)N[C@@H](CC(N)=O)C(=O)N[C@H](C(=O)N[C@@H](Cc1ccc(O)cc1)C(N)=O)[C@@H](C)O)C(C)C)[C@@H](C)O"}, "B4": {"name": "N-alpha-[(S)-4-Carboxy-4-(19-carboxynonadecanoylamino)butyryl]-His-[His17]-pramlintide (peptide)", "peptide": "HKCNTATCATQRLANFLHHSSNNFGPILPPTNVGSNTY-NH2", "modifications": "disulfide 3-8; not fully specified (N-terminus); printed as N-alpha-[(S)-4-Carboxy-4-(19-carboxynonadecanoylamino)butyryl]-His-[His17]-pramlintide"}, "B5": {"name": "N-alpha-[2-(2-{2-[4-(S)-Carboxy-4-(19-carboxynonadecanoylamino)butyrylamino]ethoxy}ethoxy)acetyl]-His-[His1,Arg17]-pramlintide (peptide)", "peptide": "{C20 diacid-γGlu-AEEA}-HHCNTATCATQRLANFLRHSSNNFGPILPPTNVGSNTY-NH2", "modifications": "disulfide 3-8", "SMILES": "CC[C@H](C)[C@H](NC(=O)[C@@H]1CCCN1C(=O)CNC(=O)[C@H](Cc1ccccc1)NC(=O)[C@H](CC(N)=O)NC(=O)[C@H](CC(N)=O)NC(=O)[C@H](CO)NC(=O)[C@H](CO)NC(=O)[C@H](Cc1c[nH]cn1)NC(=O)[C@H](CCCNC(=N)N)NC(=O)[C@H](CC(C)C)NC(=O)[C@H](Cc1ccccc1)NC(=O)[C@H](CC(N)=O)NC(=O)[C@H](C)NC(=O)[C@H](CC(C)C)NC(=O)[C@H](CCCNC(=N)N)NC(=O)[C@H](CCC(N)=O)NC(=O)[C@@H](NC(=O)[C@H](C)NC(=O)[C@@H]1CSSC[C@H](NC(=O)[C@H](Cc2c[nH]cn2)NC(=O)[C@H](Cc2c[nH]cn2)NC(=O)COCCOCCNC(=O)CC[C@H](NC(=O)CCCCCCCCCCCCCCCCCCC(=O)O)C(=O)O)C(=O)N[C@@H](CC(N)=O)C(=O)N[C@@H]([C@@H](C)O)C(=O)N[C@@H](C)C(=O)N[C@@H]([C@@H](C)O)C(=O)N1)[C@@H](C)O)C(=O)N[C@@H](CC(C)C)C(=O)N1CCC[C@H]1C(=O)N1CCC[C@H]1C(=O)N[C@H](C(=O)N[C@@H](CC(N)=O)C(=O)N[C@H](C(=O)NCC(=O)N[C@@H](CO)C(=O)N[C@@H](CC(N)=O)C(=O)N[C@H](C(=O)N[C@@H](Cc1ccc(O)cc1)C(N)=O)[C@@H](C)O)C(C)C)[C@@H](C)O"}, "B6": {"name": "N-alpha-[4-Carboxy-4-({4-[(19-carboxynonadecanoylamino)methyl]transcyclohexanecarbonyl}amino)butyryl]-[His1,His17]-pramlintide (peptide)", "peptide": "{C20 diacid-Trx-γGlu}-HCNTATCATQRLANFLHHSSNNFGPILPPTNVGSNTY-NH2", "modifications": "disulfide 2-7", "SMILES": "CC[C@H](C)[C@H](NC(=O)[C@@H]1CCCN1C(=O)CNC(=O)[C@H](Cc1ccccc1)NC(=O)[C@H](CC(N)=O)NC(=O)[C@H](CC(N)=O)NC(=O)[C@H](CO)NC(=O)[C@H](CO)NC(=O)[C@H](Cc1c[nH]cn1)NC(=O)[C@H](Cc1c[nH]cn1)NC(=O)[C@H](CC(C)C)NC(=O)[C@H](Cc1ccccc1)NC(=O)[C@H](CC(N)=O)NC(=O)[C@H](C)NC(=O)[C@H](CC(C)C)NC(=O)[C@H](CCCNC(=N)N)NC(=O)[C@H](CCC(N)=O)NC(=O)[C@@H](NC(=O)[C@H](C)NC(=O)[C@@H]1CSSC[C@H](NC(=O)[C@H](Cc2c[nH]cn2)NC(=O)CC[C@H](NC(=O)[C@H]2CC[C@H](CNC(=O)CCCCCCCCCCCCCCCCCCC(=O)O)CC2)C(=O)O)C(=O)N[C@@H](CC(N)=O)C(=O)N[C@@H]([C@@H](C)O)C(=O)N[C@@H](C)C(=O)N[C@@H]([C@@H](C)O)C(=O)N1)[C@@H](C)O)C(=O)N[C@@H](CC(C)C)C(=O)N1CCC[C@H]1C(=O)N1CCC[C@H]1C(=O)N[C@H](C(=O)N[C@@H](CC(N)=O)C(=O)N[C@H](C(=O)NCC(=O)N[C@@H](CO)C(=O)N[C@@H](CC(N)=O)C(=O)N[C@H](C(=O)N[C@@H](Cc1ccc(O)cc1)C(N)=O)[C@@H](C)O)C(C)C)[C@@H](C)O"}, "B7": {"name": "N-alpha-[(S)-4-Carboxy-4-(19-carboxynonadecanoylamino)butyryl]-His-[His1,His17]-pramlintide (peptide)", "peptide": "HHCNTATCATQRLANFLHHSSNNFGPILPPTNVGSNTY-NH2", "modifications": "disulfide 3-8; not fully specified (N-terminus); printed as N-alpha-[(S)-4-Carboxy-4-(19-carboxynonadecanoylamino)butyryl]-His-[His1,His17]-pramlintide"}}, "note": "*1 amine or outer side, *2 acyl side, *3 side chain or, on linkers, in order; H or OH if unused. Bridges are numbered along the chain shown (N, C = ends). Where no end group is shown, it is not given here. Side-chain parts run from the residue outwards. The star is where a group is joined. X1 = (S)‑4‑Carboxy‑4‑(17-carboxyheptadecanoylamino)butyryl, O=C(O)CCCCCCCCCCCCCCCCC(=O)N[C@@H](CCC(=O)*)C(=O)O; C20 diacid = O=C(O)CCCCCCCCCCCCCCCCCCC(=O)*; γGlu = O=C(O)[C@H](CCC(=O)[*:2])N[*:1]; Trx = NC[C@H]1CC[C@H](C(=O)O)CC1; AEEA = NCCOCCOCC(=O)O", "data": [{"target": "T1, Amylin 3(a) receptor (human calcitonin receptor (CTa) with RAMP-3) (human, UniProt P30988 25-474; O60896 24-148, limits assumed)", "T1 sequence (looked up) 1": "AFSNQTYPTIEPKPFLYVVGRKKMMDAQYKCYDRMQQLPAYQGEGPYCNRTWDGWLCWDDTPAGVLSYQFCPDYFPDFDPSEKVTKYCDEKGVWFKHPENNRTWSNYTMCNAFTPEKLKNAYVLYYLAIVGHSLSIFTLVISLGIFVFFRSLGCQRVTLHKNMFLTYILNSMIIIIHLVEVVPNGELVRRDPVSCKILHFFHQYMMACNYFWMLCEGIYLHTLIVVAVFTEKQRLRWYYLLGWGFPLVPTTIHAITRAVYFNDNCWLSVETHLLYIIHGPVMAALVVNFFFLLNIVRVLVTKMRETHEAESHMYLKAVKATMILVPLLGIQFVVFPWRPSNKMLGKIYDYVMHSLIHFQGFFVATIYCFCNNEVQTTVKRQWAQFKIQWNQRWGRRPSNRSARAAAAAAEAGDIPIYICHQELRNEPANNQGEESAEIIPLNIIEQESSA", "T1 sequence (looked up) 2": "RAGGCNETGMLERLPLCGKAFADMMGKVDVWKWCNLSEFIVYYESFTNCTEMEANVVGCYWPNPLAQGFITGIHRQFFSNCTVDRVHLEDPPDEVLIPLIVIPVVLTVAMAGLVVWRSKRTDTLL", "assay": "cell-based or functional assay", "units": {"Potency Luciferase": "nM"}, "values": [{"binder": "B1", "Potency Luciferase": 0.02}, {"binder": "KCK([AEEA-Glu-Glu-C20 diacid])TATCATQRLANFLHHSSDNFGPILPPTNVGSNTY-NH2 (disulfide 2-7)", "Potency Luciferase": 0.4}, {"binder": "{C20 diacid-4‑aminobutyryl}-CNTATCATQRLANFLHHSSNNFGPILPPTNVGSNTY-NH2 (disulfide 1-6)", "note": "[N-alpha-[4-(19-Carboxynonadecanoylamino)butyryl]-[His17]-pramlintide (2-37)]", "Potency Luciferase": 0.06}, {"binder": "B2", "Potency Luciferase": 0.08}, {"binder": "{C20 diacid-4‑aminobutyryl}-RKCNTATCATQRLANFLRHSSNNFGPILPPTNVGSNTY-NH2 (disulfide 3-8)", "note": "[N-alpha-[4-(19-Carboxynonadecanoylamino)butyryl]-Arg-[Arg17]-pramlintide]", "Potency Luciferase": 0.03}, {"binder": "B3", "Potency Luciferase": 0.05}, {"binder": "B4", "Potency Luciferase": 0.1}, {"binder": "B5", "Potency Luciferase": 0.2}, {"binder": "B6", "Potency Luciferase": 0.1}, {"binder": "X1-HCNTATCATQRLANFLHHSSNNFGPILPPTNVGSNTY-NH2 (disulfide 2-7)", "note": "[N-alpha-[(S)-4-Carboxy-4-(17-carboxyheptadecanoylamino)butyryl]-[His1,His17]-pramlintide]", "Potency Luciferase": 0.08}, {"binder": "B7", "Potency Luciferase": 0.1}, {"binder": "{C20 diacid-γGlu}-HCNTATCATQRLANFLHHSSNNFGPILPPTNVGSNTY-NH2 (disulfide 2-7)", "note": "[N-alpha-[(S)-4-Carboxy-4-(19-carboxynonadecanoylamino)butyryl]-[His1,His17]-pramlintide]", "Potency Luciferase": 0.07}]}]}
